Test: retention of insulin bioactivity when delivered in PLGA
Settings: delivered in poly(lactide-co-glycolide) (PLGA)
Description: Insulin is a hormone which improves glycolic metabolism and ATP production. Insulin also may act as a vasodilator, an anti-inflammatory, and an antiplatelet agent. Thus, insulin acts by several mechanisms to decrease infarct size by reducing inflammation, slowing the rate of ischemic necrosis, decreasing circulating levels of FFA and myocardial FFA uptake, restoring myocardial glycogen stores and improving contractile function. The insulin can be human, non-human, or synthetic and can be complete or fragments. Preferably the insulin is a stable, short acting form which is resistant to radiation. Insulin in its crystalline form may be used for improved resistance to radiation. When the insulin is combined with a polymer an agent may be added to preserve bioactivity. […] For substantially longer administration periods, an antacid or other agent may be used to maintain a required pH for continued bioactivity from a PLGA matrix.
Protein or peptide drugs can be human, non-human, recombinant or synthetic and can be the full length native form or an active fragment thereof. Preferably the insulin is a stable, short acting form which is resistant to radiation. Insulin in its crystalline form may be used for improved resistance to radiation. When the insulin is combined with a polymer, an agent may be added to preserve bioactivity. […]

Substance: insulin
- period over which bioactivity is retained: at least 24 hours

— patent publication US20070269486A1, “Methods and Devices for Reducing Tissue Damage After Ischemic Injury” (priority 2005, published 2007)
